From article PMC8116058 (2021)
Changes are numbered by the printed parent chain.

B1: TmrA^E523QB (catalytically reduced variant of TmrAB) (complex)
chain 1: MTEDTYSKAFDRALFARILRYVWPYRLQVVLALLFLLVVTLAAAATPLFFKWAIDLALVPTEPRPLAERFHLLLWISLGFLAVRAVHFAATYGETYLIQWVGQRVLFDLRSDLFAKLMRLHPGFYDRNPVGRLMTRVTSDVDAINQFITGGLVGVIADLFTLVGLLGFMLFLSPKLTLVVLLVAPVLLAVTTWVRLGMRSAYREMRLRLARVNAALQENLSGVETIQLFVKEREREEKFDRLNRDLFRAWVEIIRWFALFFPVVGFLGDFAVASLVYYGGGEVVRGAVSLGLLVAFVDYTRQLFQPLQDLSDKFNLFQGAMASAERIFGVLDTEEELKDPEDPTPIRGFRGEVEFRDVWLAYTPKGVEPTEKDWVLKGVSFRVRPGEKVALVGATGAGKTSVVSLIARFYDPQRGCVFLDGVDVRRYRQEELRRHVGIVLQEPFLFSGTVLDNLRLFDPSVPPERVEEVARFLGAHEFILRLPKGYQTVLGERGAGLSTGEKQLLALVRALLASPDILLILDQATASVDSETEKRLQEALYKAMEGRTSLIIAHRLSTIRHVDRILVFRKGRLVEEGSHEELLAKGGYYAALYRLQFQEA
chain 2: MTGRSAAPLLRRLWPYVGRYRWRYLWAVLAGLVSIFFFVLTPYFLRLAVDAVQAGRGFGVYALAIVASAALSGLLSYAMRRLAVVASRQVEYDLRRDLLHHLLTLDRDFYHKHRVGDLMNRLNTDLSAVREMVGPGILMGSRLSFLVLLAFLSMYAVNARLAFYLTLILPGIFLAMRFLLRLIDRRYREAQEVFDRISTLAQEAFSGIRVVKGYALERRMVAWFQDLNRLYVEKSLALARVEGPLHALLGFLMGFAFLTVLWAGGAMVVRGELSVGELVQFNAYLAQLTWPILGLGWVMALYQRGLTSLRRLFELLDEKPAIRDEDPLPLALEDLSGEVRFEGVGLKRDGRWLLRGLTLTIPEGMTLGITGRTGSGKSLLAALVPRLLDPSEGRVYVGGHEARRIPLAVLRKAVGVAPQEPFLFSETILENIAFGLDEVDRERVEWAARLAGIHEEILAFPKGYETVLGERGITLSGGQRQRVALARALAKRPKILILDDALSAVDAETEARILQGLKTVLGKQTTLLISHRTAALRHADWIIVLDGGRIVEEGTHESLLQAGGLYAEMDRLQKEVEA
B2: TmrAB (heterodimeric ABC transport complex from Thermus thermophilus, wild type) (complex)
chain 1: B1 chain 1 with Q523E
chain 2: B1 chain 2

Key:
[1] = target: T1, macrocyclic peptide CP14, fluorescein-labeled (CP14^F) (N-terminal N-chloroacetyl-D-tyrosine joined by a thioether to a cysteine; fluorescein on the side chain of the C-terminal lysine; C-terminal amide); experiment: FP; outward-facing, Mg-ATP trapped, detergent-solubilized
[2] = target: T2, macrocyclic peptide CP12, fluorescein-labeled (CP12^F) (N-terminal N-chloroacetyl-D-tyrosine joined by a thioether to a cysteine; fluorescein on the side chain of the C-terminal lysine; C-terminal amide); experiment: as above
[3] = target: T1, macrocyclic peptide CP14, …; experiment: FP; inward-facing, no Mg-ATP, detergent-solubilized
[4] = target: T2, macrocyclic peptide CP12, …; experiment: as above

| Binder | Kd [1] [nM] | Kd [2] [nM] | Kd [3] [nM] | Kd [4] [nM] |
| --- | --- | --- | --- | --- |
| B1 | 50 | 350 | – | – |
| B2 | – | – | 100 | 140 |
